From patent publication US20190248900A1 (Y BIOLOGICS, published 2019)

Experiments:
Assay in all cases: scFv-phage ELISA
[1] = molecular target: T1, M9
T1 construct: also called PD1 mutant M9

[2] = molecular target: T2, M6
T2 construct: also called PD1 mutant M6

[3] = molecular target: T3, M4
T3 construct: also called PD1 mutant M4

[4] = molecular target: T4, M8
T4 construct: also called PD1 mutant M8

[5] = molecular target: T5, M10
T5 construct: also called PD1 mutant M10

[6] = molecular target: T6, M7-1
T6 construct: also called PD1 mutant M7-1

[7] = molecular target: T7, M2-1
T7 construct: also called PD1 mutant M2-1

[8] = molecular target: T8, M5-2
T8 construct: also called PD1 mutant M5-2

[9] = molecular target: T9, M3
T9 construct: also called PD1 mutant M3

[10] = molecular target: T10, M2-2
T10 construct: also called PD1 mutant M2-2

[11] = molecular target: T11, M1
T11 construct: also called PD1 mutant M1

[12] = molecular target: T12, M7
T12 construct: also called PD1 mutant M7

[13] = molecular target: T13, M11
T13 construct: also called PD1 mutant M11

[14] = molecular target: T14, antigen PD1 (coated, construct not stated) (UniProt Q15116 25-170, limits assumed)
T14 construct: also called PD1 antigen; PDCD1

[15] = molecular target: T15, M1-1
T15 construct: also called PD1 mutant M1-1

[16] = molecular target: T16, M12
T16 construct: also called PD1 mutant M12

[17] = molecular target: T17, ITGA6-Fc
T17 construct: Fc fusion
T17 sequence (P23229 whole entry, species assumed, looked up): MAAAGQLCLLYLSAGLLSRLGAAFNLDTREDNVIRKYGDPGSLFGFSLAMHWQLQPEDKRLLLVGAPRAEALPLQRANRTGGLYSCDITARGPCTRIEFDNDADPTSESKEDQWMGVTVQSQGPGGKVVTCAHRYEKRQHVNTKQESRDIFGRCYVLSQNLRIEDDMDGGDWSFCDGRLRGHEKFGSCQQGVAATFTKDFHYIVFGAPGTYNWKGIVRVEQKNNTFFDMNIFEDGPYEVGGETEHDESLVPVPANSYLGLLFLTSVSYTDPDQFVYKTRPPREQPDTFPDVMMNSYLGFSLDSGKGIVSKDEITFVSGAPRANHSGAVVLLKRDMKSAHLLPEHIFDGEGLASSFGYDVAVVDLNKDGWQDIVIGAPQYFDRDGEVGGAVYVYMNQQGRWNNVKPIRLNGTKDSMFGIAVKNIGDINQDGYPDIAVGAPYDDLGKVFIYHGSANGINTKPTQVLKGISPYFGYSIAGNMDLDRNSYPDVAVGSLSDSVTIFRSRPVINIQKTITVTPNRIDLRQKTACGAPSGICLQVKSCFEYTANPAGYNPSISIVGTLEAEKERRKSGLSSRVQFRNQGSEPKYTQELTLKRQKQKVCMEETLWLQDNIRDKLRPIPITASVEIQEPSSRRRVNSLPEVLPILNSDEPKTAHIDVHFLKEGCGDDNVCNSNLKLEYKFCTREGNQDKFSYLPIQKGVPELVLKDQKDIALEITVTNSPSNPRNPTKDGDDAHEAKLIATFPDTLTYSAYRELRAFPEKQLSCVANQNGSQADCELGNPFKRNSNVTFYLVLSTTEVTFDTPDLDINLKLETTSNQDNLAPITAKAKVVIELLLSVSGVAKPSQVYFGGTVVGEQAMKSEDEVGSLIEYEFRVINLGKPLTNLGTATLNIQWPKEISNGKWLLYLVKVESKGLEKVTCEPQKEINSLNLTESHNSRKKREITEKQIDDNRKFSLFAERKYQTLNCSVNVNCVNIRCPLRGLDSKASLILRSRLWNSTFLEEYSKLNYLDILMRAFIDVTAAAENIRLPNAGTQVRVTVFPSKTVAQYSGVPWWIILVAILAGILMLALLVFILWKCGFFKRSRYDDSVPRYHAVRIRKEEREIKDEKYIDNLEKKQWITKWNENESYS

[18] = molecular target: T18, M14
T18 construct: also called PD1 mutant M14

[19] = molecular target: T19, M5-1
T19 construct: also called PD1 mutant M5-1

[20] = molecular target: T20, M2
T20 construct: also called PD1 mutant M2

[21] = molecular target: T21, M1-2
T21 construct: also called PD1 mutant M1-2

[22] = molecular target: T22, M7-2
T22 construct: also called PD1 mutant M7-2

[23] = molecular target: T23, M13
T23 construct: also called PD1 mutant M13

[24] = molecular target: T24, M5
T24 construct: also called PD1 mutant M5

T14 sequence (Q15116 25-170 limits assumed): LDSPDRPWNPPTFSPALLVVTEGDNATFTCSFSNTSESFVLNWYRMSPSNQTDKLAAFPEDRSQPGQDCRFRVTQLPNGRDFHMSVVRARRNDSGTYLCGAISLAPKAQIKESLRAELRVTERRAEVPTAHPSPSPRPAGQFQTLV

B1: PD1-45F1 (antibody, V domains shown)
VH: QVQLVQSGAEVKKPGASVKLSCKASGYTFNSYYVHWVRQAPGQGLEWMGIINPSDGSATYAQKFQGRVTMTSDTSTSSVYMELSSLRSEDTAVYYCARDGNYYDSRGYYYDTFDMWGQGTLITVSS
VL: SYELTQDPAVSVALGQTVRITCQGDSLRTYYASWYQQKPGQAPILVIYGKNNRPSGIPDRFSGSSSGNTASLTITAAQAEDEADYYCNSRDSSGKSLVFGGGTKLTVL
notes: scFv-phage in the screening ELISA; later whole IgG
- OD490 [1]: 3.8
- OD490 [2]: 4
- OD490 [3]: 3.9
- OD490 [4]: 3.9
- OD490 [5]: 3.9
- OD490 [6]: 3.9
- OD490 [7]: 3.9
- OD490 [8]: 3.9
- OD490 [9]: 3.8
- OD490 [10]: 4
- OD490 [11]: 3.9
- OD490 [12]: 3.8
- OD490 [13]: 3.8
- OD490 [14]: 4
- OD490 [15]: 3.9
- OD490 [16]: 0.4
- OD490 [17]: 0.1
- OD490 [18]: 3.8
- OD490 [19]: 3.9
- OD490 [20]: 3.8
- OD490 [21]: 3.9
- OD490 [22]: 3.9
- OD490 [23]: 2.2
- OD490 [24]: 3.8

B2: PD1-42G4 (antibody, V domains shown)
VH: QVQLVESGGGLVKPGGSLRLSCAASGFTFSDYYMSWIRQAPGKGLEWVSDISASGNSIYYADSVKRRFTISRDNSKNSLYLQMNSLRAEDTAVYYCVTSGPFGEFRNWGLGTLVTVSS
VL: DIQMTQSPSSLSASVGDRVTTTCRASQGISSYLAWYQQKPGKAPKLLIYAASTLQSGVPSRFSGSGSGTDFTLTISSLQPEDFATYFCQQSYTSPRTFGQGTKLDIK
notes: as for B1
- OD490 [1]: 3.4
- OD490 [2]: 3.3
- OD490 [3]: 1.9
- OD490 [4]: 2.1
- OD490 [5]: 3.1
- OD490 [6]: 2.8
- OD490 [7]: 0.6
- OD490 [8]: 3.5
- OD490 [9]: 2
- OD490 [10]: 3
- OD490 [11]: 1.8
- OD490 [12]: 2.5
- OD490 [13]: 1.7
- OD490 [14]: 2.8
- OD490 [15]: 2.9
- OD490 [16]: 2.7
- OD490 [17]: 0.4
- OD490 [18]: 3.7
- OD490 [19]: 1.9
- OD490 [20]: 0.6
- OD490 [21]: 0.6
- OD490 [22]: 2.7
- OD490 [23]: 3.7
- OD490 [24]: 1.6

B3: PD1-32A6 (antibody, V domains shown)
VH: QVQLVQSGAEVKKPGSSVKVSCKASGDTFTRNAVSWVRQAPGEGLEWMADIIPIFGSANYAQKFQGRLTLTADVSTSTAYMELSSLRSEDTAVYYCARTIEGAFDIWGQGTMVTVSS
VL: DIQMTQSPSSVSASVGDRVTITCRASQGIVSWLAWYQQKPGKAPRLLIYRASDLETGVPSRFSGSGSGTDFTLTISSLQPEDVATYYCQQADSFPLTFGGGTKVEIK
notes: as for B1
- OD490 [1]: 2.4
- OD490 [2]: 2.9
- OD490 [3]: 2.4
- OD490 [4]: 3.1
- OD490 [5]: 2.5
- OD490 [6]: 3.1
- OD490 [7]: 2.8
- OD490 [8]: 2.8
- OD490 [9]: 3
- OD490 [10]: 2.7
- OD490 [11]: 2.4
- OD490 [12]: 3.2
- OD490 [13]: 3.3
- OD490 [14]: 3.5
- OD490 [15]: 2.6
- OD490 [16]: 2.7
- OD490 [17]: 0.3
- OD490 [18]: 1.7
- OD490 [19]: 3.6
- OD490 [20]: 3.2
- OD490 [21]: 2.8
- OD490 [22]: 2.8
- OD490 [23]: 0.5
- OD490 [24]: 2.9

B4: PD1-29H3 (antibody, V domains shown)
VH: QMQLVESGGNLVQPGRSLRLSCAASGFTFDDYGMHWVRQAPGKGLEWVSSISWNSGTIGYADSVKGRFTISRDNAKNSLYLQMNSLRSEDTAVYYCARLLHQMNEHEFMDVWGQGTTVTVSS
VL: QLVLTQPSSMSEAPGQRVTISCSGGTSNIGTNAVNWYQQPPGKAPTLLIYYDDRLTSGVSDRFSGSKSGTSASLAISRLQSEDEADYYCAAWDDSLNGWVFGGGTKLTVL
notes: as for B1
- OD490 [1]: 3.4
- OD490 [2]: 3.5
- OD490 [3]: 3.3
- OD490 [4]: 2.2
- OD490 [5]: 3
- OD490 [6]: 1.5
- OD490 [7]: 2.8
- OD490 [8]: 3.7
- OD490 [9]: 2.3
- OD490 [10]: 3.2
- OD490 [11]: 1.5
- OD490 [12]: 1.4
- OD490 [13]: 1
- OD490 [14]: 3.6
- OD490 [15]: 3.2
- OD490 [16]: 3
- OD490 [17]: 0.3
- OD490 [18]: 3.5
- OD490 [19]: 2
- OD490 [20]: 0.7
- OD490 [21]: 0.6
- OD490 [22]: 3.1
- OD490 [23]: 3.5
- OD490 [24]: 2

B5: PD1-31F3 (antibody, V domains shown)
VH: QVQLVQSGAEVKKPGSSVKVSCKASGGTFSSYAISWVRQAPGQGLEWMGGIIPLFSTAHSAQKFQGRVTITADESSSTAYMELSSLRSEDTAVYYCAKHKGLPFDWSPDGFDTWGQGTMVTVSS
VL: QFVLTQPPSVSGAPGQRVIISCTGSSSNIGAGYDVHWYQQLPGTAPKVLIYGNSDRPSGVPDRFSASKSATSASLAITGLQAEDEADYYCQSYDSSLSGYVFGTGTKVTVL
notes: as for B1
- OD490 [1]: 3.2
- OD490 [2]: 3.3
- OD490 [3]: 2.7
- OD490 [4]: 1.7
- OD490 [5]: 3
- OD490 [6]: 0.8
- OD490 [7]: 3.5
- OD490 [8]: 3.4
- OD490 [9]: 1.9
- OD490 [10]: 3.3
- OD490 [11]: 3
- OD490 [12]: 0.7
- OD490 [13]: 0.8
- OD490 [14]: 2
- OD490 [15]: 3
- OD490 [16]: 2.6
- OD490 [17]: 0.4
- OD490 [18]: 3.4
- OD490 [19]: 1.3
- OD490 [20]: 0.7
- OD490 [21]: 3.2
- OD490 [22]: 1.5
- OD490 [23]: 3.3
- OD490 [24]: 1.1

B6: PD1-44B5 (antibody, V domains shown)
VH: QVQLVESGGGVVQPGRSLRLSCAASGFTFSSYAMHWVRQAPGKGLEWVAVISYDGSNKYYADSVKGRFTISRDNSKNTLYLQMNSLRAEDTAVYYCARLMHTFSVQYFLDVWGQGTTVTVSS
VL: QFVLTQSPSASGTPGQNIVISCSASTFNIGTTTVNWYQRLPGTAPKLLIYNYDQRPSGVPDRFSGSKSGTSASLAISGLQSEDEADYYCAAWDDSLNAWLFGGGTKLTVL
notes: as for B1
- OD490 [1]: 3.7
- OD490 [2]: 3.7
- OD490 [3]: 3.6
- OD490 [4]: 3.5
- OD490 [5]: 3.7
- OD490 [6]: 3.7
- OD490 [7]: 3.6
- OD490 [8]: 3.8
- OD490 [9]: 3.7
- OD490 [10]: 3.7
- OD490 [11]: 3.8
- OD490 [12]: 3.6
- OD490 [13]: 3.8
- OD490 [14]: 3.8
- OD490 [15]: 3.6
- OD490 [16]: 3.6
- OD490 [17]: 0.3
- OD490 [18]: 3.7
- OD490 [19]: 3.7
- OD490 [20]: 3.7
- OD490 [21]: 0.3
- OD490 [22]: 3.7
- OD490 [23]: 3.7
- OD490 [24]: 3.7
